Measurements from PMC11602973, “Structural basis of nucleic acid recognition by the N-terminal cold shock domain of the plant glycine-rich protein AtGRP2”.

Assays:
AtGRP2-CSD1-90 WT [1] = biological target: T1, AtGRP2-CSD1-90 WT (Arabidopsis thaliana, UniProt Q41188 1-90); experiment: NMR HSQC titration; up to 2x molar excess; 20 mM sodium phosphate pH 6.5, 50 mM NaCl, 25 C (fluorescence); NMR titrations in the same buffer plus 250 uM PMSF, 3 mM NaN3, 5% D2O, 298 K; conditions: protein: recombinant; tags: N-terminal Trx(6 aa)-His6-TEV tag, cleaved
T1 sequence: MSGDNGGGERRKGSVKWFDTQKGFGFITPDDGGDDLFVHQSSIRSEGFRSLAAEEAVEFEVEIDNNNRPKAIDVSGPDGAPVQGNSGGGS

AtGRP2-CSD1-79 = biological target: T2, AtGRP2-CSD1-79 (Arabidopsis thaliana, UniProt Q41188 1-79); experiment: intrinsic Trp fluorescence quenching; 20 mM sodium phosphate pH 6.5, 50 mM NaCl, 25 C (fluorescence); NMR titrations in the same buffer plus 250 uM PMSF, 3 mM NaN3, 5% D2O, 298 K; conditions: protein: recombinant; tags: N-terminal Trx(6 aa)-His6-TEV tag, cleaved
T2 sequence: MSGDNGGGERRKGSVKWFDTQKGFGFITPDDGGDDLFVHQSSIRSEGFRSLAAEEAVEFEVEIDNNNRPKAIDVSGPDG

AtGRP2-CSD1-90 H39A = biological target: T3, AtGRP2-CSD1-90 H39A (Arabidopsis thaliana, UniProt Q41188 1-90, H39A); experiment: fluorescence anisotropy; 20 mM sodium phosphate pH 6.5, 50 mM NaCl, 25 C (fluorescence); NMR titrations in the same buffer plus 250 uM PMSF, 3 mM NaN3, 5% D2O, 298 K; conditions: protein: recombinant; tags: N-terminal Trx(6 aa)-His6-TEV tag, cleaved; label: 5'-rhodamine
T3 sequence: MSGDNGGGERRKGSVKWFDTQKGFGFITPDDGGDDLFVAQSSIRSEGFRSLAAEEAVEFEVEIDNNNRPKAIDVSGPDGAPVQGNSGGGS

AtGRP2-CSD1-90 F48A = biological target: T4, AtGRP2-CSD1-90 F48A (Arabidopsis thaliana, UniProt Q41188 1-90, F48A); experiment: as above; conditions: protein: recombinant; tags: N-terminal Trx(6 aa)-His6-TEV tag, cleaved; label: 5'-rhodamine
T4 sequence: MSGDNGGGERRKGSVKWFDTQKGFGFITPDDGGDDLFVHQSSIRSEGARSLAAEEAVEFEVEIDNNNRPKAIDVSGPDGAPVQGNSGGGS

AtGRP2-CSD1-90 WT [2] = biological target: T1, AtGRP2-CSD1-90 WT; experiment: as above; conditions: protein: recombinant; tags: N-terminal Trx(6 aa)-His6-TEV tag, cleaved; label: 5'-rhodamine
AtGRP2-CSD1-90 R49A = biological target: T5, AtGRP2-CSD1-90 R49A (Arabidopsis thaliana, UniProt Q41188 1-90, R49A); experiment: as above; conditions: protein: recombinant; tags: N-terminal Trx(6 aa)-His6-TEV tag, cleaved; label: 5'-rhodamine
T5 sequence: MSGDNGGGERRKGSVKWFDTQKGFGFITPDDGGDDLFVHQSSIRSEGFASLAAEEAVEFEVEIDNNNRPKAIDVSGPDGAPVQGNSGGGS

AtGRP2-CSD1-90 F37A = biological target: T6, AtGRP2-CSD1-90 F37A (Arabidopsis thaliana, UniProt Q41188 1-90, F37A); experiment: fluorescence anisotropy; no saturation; text: binding abolished; 20 mM sodium phosphate pH 6.5, 50 mM NaCl, 25 C (fluorescence); NMR titrations in the same buffer plus 250 uM PMSF, 3 mM NaN3, 5% D2O, 298 K; conditions: protein: recombinant; tags: N-terminal Trx(6 aa)-His6-TEV tag, cleaved; label: 5'-rhodamine
T6 sequence: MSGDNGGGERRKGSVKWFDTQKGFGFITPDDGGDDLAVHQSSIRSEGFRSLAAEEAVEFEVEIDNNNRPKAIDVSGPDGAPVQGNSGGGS

AtGRP2-CSD1-90 F26A = biological target: T7, AtGRP2-CSD1-90 F26A (Arabidopsis thaliana, UniProt Q41188 1-90, F26A); experiment: as above; conditions: protein: recombinant; tags: N-terminal Trx(6 aa)-His6-TEV tag, cleaved; label: 5'-rhodamine
T7 sequence: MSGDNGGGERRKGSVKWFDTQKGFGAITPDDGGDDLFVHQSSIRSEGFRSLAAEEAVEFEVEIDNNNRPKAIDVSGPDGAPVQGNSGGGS

AtGRP2-CSD1-90 W17A = biological target: T8, AtGRP2-CSD1-90 W17A (Arabidopsis thaliana, UniProt Q41188 1-90, W17A); experiment: as above; conditions: protein: recombinant; tags: N-terminal Trx(6 aa)-His6-TEV tag, cleaved; label: 5'-rhodamine
T8 sequence: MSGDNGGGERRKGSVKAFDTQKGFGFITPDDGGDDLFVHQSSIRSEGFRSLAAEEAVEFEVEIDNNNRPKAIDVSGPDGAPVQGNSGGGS

B1: G7 (ssDNA)
DNA: GGGGGGG
binding result (AtGRP2-CSD1-90 WT [1]): no binding

B2: A7 (ssDNA)
DNA: AAAAAAA
binding result (AtGRP2-CSD1-90 WT [1]): no binding

B3: T7 (ssDNA)
DNA: TTTTTTT
Kd (AtGRP2-CSD1-79): 22 ± 2.4 µM

B4: Rho-T7 (ssDNA)
DNA: TTTTTTT
Kd (AtGRP2-CSD1-90 H39A): 210 ± 36.8 µM | Kd (AtGRP2-CSD1-90 F48A): 38.6 ± 6.3 µM | Kd (AtGRP2-CSD1-90 WT [2]): 17.2 ± 2.4 µM | Kd (AtGRP2-CSD1-90 R49A): 45.7 ± 6.8 µM | binding result (AtGRP2-CSD1-90 F37A): no binding | binding result (AtGRP2-CSD1-90 F26A): no binding | binding result (AtGRP2-CSD1-90 W17A): no binding

B5: Rho-U7 (ssRNA)
RNA: UUUUUUU
Kd (AtGRP2-CSD1-90 WT [2]): 76.8 ± 9.7 µM
